Test results taken from patent US20230312689A1 (NATIONAL UNIVERSITY CORPORATION KUMAMOTO UNIVERSITY, published 2023).

B1: CSSA10-121 (antibody, V domains shown)
VH: EVQLVESGGGLIQPGGSLRLSCAASGLTVSRNYMSWVRQAPGRGLEWVSLIYSGGSTYYADSVKGRFTISRDSSKNTLYLQMNSLRAEDTAVYYCARPIVGARAGMDVWGQGTTVTVSS
VL: DIRMTQSPSSLSASVGDRVTITCQASQDISNYLNWYQQKPGKAPKLLIYDASNLETGVPSRFSGSGSGTDFTFTISSLQPEDIATYYCQQYDNLPVTFGQGTRLEIK
B2: CTMA9-105 (antibody, V domains shown)
VH: EVQLVESGGGLIQPGGSLRLSCAASGITVSSNYMSWVRQAPGKGLEWVSLIYSGGSTYYADSVKGRFTISRDNSKNTLYLQMNSLRAEDTAVYYCARDLEEAGGMDVWGQGTTVTVSS
VL: DIVMTQSPGTLSLSPGERATLSCRASQSVPSIYLAWYQQRPGQAPRLLIYGASSRATGIPDRFSGSGSGTDFTLTISRLEPEDFAVYYCQQYGSSPGTFGQGTKVEIK

Key:
[1] = biological target: SARS-CoV-2 spike protein, European type SD614G (SARS-CoV-2, UniProt P0DTC2 14-1273); assay: cell-based or functional assay
[2] = biological target: spike protein of SARS-CoV-2 mutant strain B.1.351 (SARS-CoV-2); assay: cell-based or functional assay

Row | Binder | neutralizing activity (IC50 value), pseudovirus, 293F/ACE2/TMPRSS2 cells [1] | neutralizing activity (IC50 value), pseudovirus, Caco-2 cells [1] | neutralizing activity (IC50 value), pseudovirus, Calu-3 cells [1] | IC50, pseudovirus neutralization, 293FT/DSP/ACE2/TMPRSS2 cells [2]
1 | B1 | 0.018 µg/mL | 0.015 µg/mL | 0.12 µg/mL | 
2 | B2 | 0.0035 µg/mL | 0.00092 µg/mL | 0.0019 µg/mL | 0.021 µg/mL
